Experimental data taken from the nanobody polyreactivity screen of Harvey et al. (2022).

Assay: yeast display, Sf9 membrane polyspecificity reagent, FACS + sequencing; frameworks hold sequencing errors
Outline: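 After 36–48 hours of galactose induction, yeast (Saccharomyces cerevisiae BJ5465) displaying a synthetic nanobody library were stained at 4 °C for 1 hour with 10% biotinylated, detergent-solubilized Sf9 membrane reagent. Streptavidin microbeads enriched the stained cells before FACS sorting into low and high (top ~1%) gates on anti-HA and streptavidin fluorescence. Each clone's polyreactivity label reflects its gate of origin.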

Sequence	polyreactivity (PSR sort gate)
QVQLVESGGGLVQAGGSLRLSCAASGYIFYAYAMGWSRQAPGKERELVAAISSGGGRTYYADSVKGRFTISRDNAKNTVYLQMNSLKPEDTAVYYCAARRRDRGEYYYWGQGTQVTVSS	high polyreactivity
QVQLVESGGGLVQAGGSLRLSCAASGYIFYFNDMGWYRQAPGKERELVADITYSGDSTYYADSVKGRFTISRDNAKNTVYLQMNSLKPEDTAVYYCAARRGWWYRGDDYWGQGTQVNVSS	low polyreactivity
QVQLVESGGGLVQAGGSLRLSCAASGYIFYQYAMGWDRQAPGKERELVAGINWRGGSTYADSVKGRFTISRDNAKITVYLQMNSLKPEDTEVYYCNANQYRQDVFRRPSYYAYYYWGQGTQVTVSS	high polyreactivity
QVQLVESGGGLVQAGGSLRLSCAASGYIFYRYAMGWYRQAPGKEREFVASITKRGGRTFYADSVKGRFTISRDNAKNTVYLQMNSLKPEDTAVYYCARKAEYGTDMGYWGQGTQVTVSS	high polyreactivity
QVQLVESGGGLVQAGGSLRLSCAASGYIFYSCAMGWYRQAPGKERELVATISSGGSTYYSDSVKGRFTISRDNAKNTVYLQMNSLKPEDTAVYYCNAKMYKPPFDYWGQGTQVTVSS	low polyreactivity
QVQLVESGGGLVQAGGSLRLSCAASGYIFYTYAMGWYRQAPGKERELVASIDSGGSTNYADSVKGRFTISRDNAKNTVYLQMNSLKPEDTAVYYCAADVIVRVYYYYYVLMDYWGHGTQVTVSS	low polyreactivity
QVQLVESGGGLVQAGGSLRLSCAASGYIFYYNAMGWYRQAPGKERELVADITWSGDSTYYADSVKGRFTISRYNAKNTVYLQMNSLKPEDTAVYYCAAEYLEYWDYDIMDYWGQGTQVTVSS	low polyreactivity
QVQLVESGGGLVQAGGSLRLSCAASGYIFYYNTMGWYRQAPGKERELVAAIRSSGGSTYYADSVKGRFTISRDNAKNTVYLQMNSLKPEDTAVYYCAARPYRTKLIYGYWGQGTQVTVSS	high polyreactivity
QVQLVESGGGLVQAGGSLRLSCAASGYIFYYYAMGWYRQAPGKERELVAAITFSGGSTYYADSVKGRFTISRDNAKNNVYLQMNRLKPEDTAGYYCAKVELRDAAELGSDEYDYWGQGTQVTVSS	low polyreactivity
QVQLVESGGGLVQAGGSLRLSCAASGYIGNYPMGWYRQAPGKESELVAAITTSGGRTYYADSVKGRFTISRDNAKNTVYVQMNSLKPEDTAVYYCAAPWRLFSLYDYWGQGTQVTVSS	low polyreactivity
QVQLVESGGGLVQAGGSLRLSCAASGYILGGNAMGWYRQAHGKERELDAVIRKSGGSTYADSVKGRFTISRDNAKNSVYLQMNSLKPEDTAVYYCNADTLAGVYFYQSDYWGQGTQVTVSS	low polyreactivity
QVQLVESGGGLVQAGGSLRLSCAASGYILGVYAMGWYRQAPGKERELVASISRSGGSTYYADSVKGRFTISRDNAKNTVYLQMNSLKPEDTAVYYCATRSRTAHFRLRYDYWGQGTQVTVSS	low polyreactivity
QVQLVESGGGLVQAGGSLRLSCAASGYILHPNAMRWYRQSPGKDRELVAAIRWRGGSTYYADSVKGRFTISRDNAKNTVYLQMNSLKPEDTAVYYCAADKSKYRAFDYWGQGTQVTVSS	high polyreactivity
QVQLVESGGGLVQAGGSLRLSCAASGYILIYNAMGWYRQAPGTERELVAAINYRGDRTYYADSVKGRFTISRDNAKNTVYLQMNSLKPEDTAVYYCAKDYPYYGRYYRYPYDSWGQGTQVTVSS	high polyreactivity
QVQLVESGGGLVQAGGSLRLSCAASGYILPKNTMGWYRQAPGKERELVAAISWSGGSTFYADSVKGRFTISRDNAKHTVYLQMNSLKPEDTAVYYCAADRSWSWYYRYDYWGQGTQVTVSS	low polyreactivity
QVQLVESGGGLVQAGGSLRLSCAASGYILPKNTMGWYRQAPGKERELVAAISWSGGSTFYADSVKGRFTISRDNAKNTVYLQMNSLKPEDTAVYYCAADRSWSWYYRYDYWGQGTQVTVSS	low polyreactivity
QVQLVESGGGLVQAGGSLRLSCAASGYILQINAMGWYRQAPGKERELVAAISISGGNTYYADSVKGRFTISRDNAKNTVYLQMNSLKPEDTAVYYCNAGGPLQPYDYWGQGTQVTVSS	low polyreactivity
QVQLVESGGGLVQAGGSLRLSCAASGYILTHYAMGWYRQAPGKERELVAAITSSGGSTYYADSVKGRFTISRDNAKNTVYLQMNSLKPEDTAVYYCAADAGQQEYDYWGQGTQVTVSS	low polyreactivity
QVQLVESGGGLVQAGGSLRLSCAASGYILWNAMGWYRPAPGKERELVAAIRFRGGSTSYADSVKGRFTISRDNAKNTVYLQMNSLKPEDTAVYYCNARWWVIRPYQRHDYWGQGTQVTVSS	low polyreactivity
QVQLVESGGGLVQAGGSLRLSCAASGYISYVNAMGWYRQAPGKERELVAAISGRGGSTYYADSVKGRFTISRDNAKNNVYLQMNSLKPEDTAVYYCAADLYYSYYWGQGTQVTVSS	low polyreactivity
QVQLVESGGGLVQAGGSLRLSCAASGYIVGAYAKGWYRQAPGKERELVAGITASGDSTYYADSVKGRFTISRDNAKNTVYLQMKCLKPEDTAVYYCNAQPDIGLYDRQWKEPYEYWGQGTQVTVSS	low polyreactivity
QVQLVESGGGLVQAGGSLRLSCAASGYIVYFNAMGWYRQAPGKERELVASIDSGGSTNYADSVKGRFTISRDNAKNTVYLQMNSLKPADTAVYYCAADKLYQPGIGDDYWGQGTQVTVSS	low polyreactivity
QVQLVESGGGLVQAGGSLRLSCAASGYIWYNAMRWYRQAPGKERELVAAISWGGGTTYYADSVKGRFTISRDNAKNTVYLQMNSLKPEDTAVYYCAAVDAVGPTSHAMYYWGQGTQVTVSS	low polyreactivity
QVQLVESGGGLVQAGGSLRLSCAASGYIWYYAMGWSRQAPGKERELVAAISWGGGSTYYADSVKGRFTISRDNAKNTVYLQMNSLKPEDTAVYYCATRCIPDDNARDYWGQGTQVTVSS	low polyreactivity
QVQLVESGGGLVQAGGSLRLSCAASGYIYSVNAMGWYRQAPGKERELVAAIRGSGGSTFYADSVKGRFTISRDNAKNTVYLQMNSLKPEDTAVSYCAASFLGSFTDWVYSVYEYGSWGQGTQVTVSS	low polyreactivity
QVQLVESGGGLVQAGGSLRLSCAASGYLWYYAMGWYRQSPGKERELVAAICWGGGSTFFADSVKGRFTISRDNAKNTVYLQMNSLKPEDTAVYYCAAVDAVGPTSHAMFYWGQGTQVTGSS	low polyreactivity
QVQLVESGGGLVQAGGSLRLSCAASGYNFERNAMGWYRPAPGKERELVAAITDDGDDTYYADSVKGRFTISRDNAKNTVYLQMNSLKPEDTAVYYCAKDLYYGDYYYWGQGTQVTVSS	low polyreactivity
QVQLVESGGGLVQAGGSLRLSCAASGYNFPYYAMGWYRQAPGKERELVAGITTDGSSTYYADSVKGRFTISRDNAKNTVYLQMNSLKPEDTAVYYCYGYPGYTWGWYDYWGQGTQVTVSS	low polyreactivity
QVQLVESGGGLVQAGGSLRLSCAASGYNFRQYAMGWYRQATGKEREFVAAISQTGGSTYYADSVKGRFTISRDNANNTVYLQMNSLKPEDTAVYYCAARYRGQRYRKLDYWGQGTQVTVSS	high polyreactivity
QVQLVESGGGLVQAGGSLRLSCAASGYNFYINPMGWYRQAPGKERELVATIRRRGGSTYYADSVKGRFTISRDNAKNTVYLQMNSLKPEDTAVYYCNAVTLGGKYVYQYRRGFDYWGQGTQVTVSS	high polyreactivity
